# T1: ERG-ETS domain (UniProt P11308 307-400)
# T1 sequence: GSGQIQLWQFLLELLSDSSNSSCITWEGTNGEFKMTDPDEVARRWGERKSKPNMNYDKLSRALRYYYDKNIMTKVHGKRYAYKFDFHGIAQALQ
# Target: T1, ERG-ETS domain
# Assay: EMSA; no compound; 1 nM DNA; EMSA: protein stored in 20 mM sodium phosphate, 200 mM NaCl, 2 mM DTT, 0.1 mM EDTA, pH 6.5; reaction with 3% glycerol, 0.2 mg/mL BSA, 1 nM dsDNA, room temperature 1 h; 10% native gel run at 10 C
# Settings: protein: recombinant; tags: His6 removed by thrombin; label: Alexa-488; blunt
binder,measurement,value
ETS consensus GGAA probe (dsDNA) DNA 1: CGGCCAAGCCGGAAGTGAGTG DNA 2: CACTCACTTCCGGCTTGGCCG,Kd,~1 nM

# Reference: paper PMC5522078, “Discovery and characterization of small molecules targeting the DNA-binding ETS domain of ERG in prostate cancer” (Oncotarget, 2017)
